Experiments:
Assay in all cases: cell-based or functional assay
[1] = biological target: HIV-1 JR-CSF Env R350A (HIV-1 isolate JR-CSF) (UniProt P20871)
[2] = biological target: HIV-1 JR-CSF Env I323A (HIV-1 isolate JR-CSF) (UniProt P20871)
[3] = biological target: HIV-1 Env of isolate 92TH021 (HIV-1)
[4] = biological target: HIV-1 JR-CSF Env K421A (HIV-1 (isolate JR-CSF)) (UniProt P20871)
[5] = biological target: HIV-1 JR-CSF Env L416A (HIV-1 (isolate JR-CSF)) (UniProt P20871)
[6] = biological target: HIV-1 Env of isolate MGRM-AE-001 (HIV-1)
[7] = biological target: HIV-1 JR-CSF Env N301A (HIV-1 JR-CSF) (UniProt P20871)
[8] = biological target: HIV-1 Env of isolate MGRM-A-001 (HIV-1)
[9] = biological target: HIV-1 APV6 envelope glycoprotein (Env) (HIV-1)
[10] = biological target: HIV-1 JR-CSF Env N392Q (HIV-1 (isolate JR-CSF)) (UniProt P20871)
[11] = biological target: HIV-1 JR-CSF Env T319A (HIV-1 isolate JR-CSF) (UniProt P20871)
[12] = biological target: Env of the clade AG HIV-1 pseudoviruses of the cross-clade 162-pseudovirus panel (n = 10)
[13] = biological target: HIV-1 JR-CSF Env I307A (HIV-1 JR-CSF) (UniProt P20871)
[14] = biological target: HIV-1 Env of isolate MGRM-A-008 (HIV-1)
[15] = biological target: HIV-1 JR-CSF Env S393A (HIV-1 (isolate JR-CSF)) (UniProt P20871)
[16] = biological target: HIV-1 Env of isolate 93UG077 (HIV-1)
[17] = biological target: HIV-1 JR-CSF Env S199A (HIV-1 JR-CSF) (UniProt P20871)
[18] = biological target: HIV-1 JR-CSF Env I326A (HIV-1 isolate JR-CSF) (UniProt P20871)
[19] = biological target: HIV-1 92RW020 envelope glycoprotein (Env) (HIV-1)
[20] = biological target: HIV-1 JR-CSF Env R304A (HIV-1 JR-CSF) (UniProt P20871)
[21] = biological target: HIV-1 Env of isolate MGRM-C-026 (HIV-1)
[22] = biological target: HIV-1 JR-CSF Env F210A (HIV-1 JR-CSF) (UniProt P20871)
[23] = biological target: HIV-1 JR-CSF Env Q422A (HIV-1 (isolate JR-CSF)) (UniProt P20871)
[24] = biological target: HIV-1 Env of isolate JR-CSF (HIV-1) (UniProt P20871)
[25] = biological target: Env of all HIV-1 pseudoviruses of the cross-clade 162-pseudovirus panel (n = 162)
[26] = biological target: HIV-1 JR-CSF Env T320A (HIV-1 isolate JR-CSF) (UniProt P20871)
[27] = biological target: HIV-1 Env of isolate 92WR020 (HIV-1)
[28] = biological target: HIV-1 JR-CSF Env W395A (HIV-1 (isolate JR-CSF)) (UniProt P20871)
[29] = biological target: HIV-1 Env of isolate VLGCA1 (HIV-1)
[30] = biological target: HIV-1 MGRM-C-028 envelope glycoprotein (Env) (HIV-1)
[31] = biological target: HIV-1 JR-CSF Env N262A (HIV-1 JR-CSF) (UniProt P20871)
[32] = biological target: HIV-1 JR-CSF Env S306A (HIV-1 JR-CSF) (UniProt P20871)
[33] = biological target: HIV-1 JR-CSF Env T413A (HIV-1 (isolate JR-CSF)) (UniProt P20871)
[34] = biological target: HIV-1 JR-CSF Env H330A (HIV-1 isolate JR-CSF) (UniProt P20871)
[35] = biological target: HIV-1 JR-CSF Env N355A (HIV-1 isolate JR-CSF) (UniProt P20871)
[36] = biological target: HIV-1 JR-CSF Env N396A (HIV-1 (isolate JR-CSF)) (UniProt P20871)
[37] = biological target: HIV-1 92BR020 envelope glycoprotein (Env) (HIV-1)
[38] = biological target: Env of the clade B HIV-1 pseudoviruses of the cross-clade 162-pseudovirus panel (n = 31)
[39] = biological target: HIV-1 JR-CSF Env I423A (HIV-1 (isolate JR-CSF)) (UniProt P20871)
[40] = biological target: Env of the clade F HIV-1 pseudoviruses of the cross-clade 162-pseudovirus panel (n = 15)
[41] = biological target: HIV-1 JR-CSF Env I420A (HIV-1 (isolate JR-CSF)) (UniProt P20871)
[42] = biological target: HIV-1 APV13 envelope glycoprotein (Env) (HIV-1)

B1: PGT-126 (antibody, V domains shown)
VH: QPQLQESGPGLVEASETLSLTCTVSGDSTAACDYFWGWVRQPPGKGLEWIGGLSHCAGYYNTGWTYHNPSLKSRLTISLDTPKNQVFLKLNSVTAADTAIYYCARFDGEVLVYHDWPKPAWVDLWGRGTLVTVSS
VL: QSALTQPPSASGSPGQSISISCTGTSNRFVSWYQQHPGKAPKLVIYGVNKRPSGVPDRFSGSKSGNTASLTVSGLQTDDEAVYYCSSLVGNWDVIFGGGTKLTVL
With B1 the Fold IC50 increase relative to wild-type [1] was 0.7 fold, the Fold IC50 increase relative to wild-type [2] was 0.9 fold and the IC50 (µg/mL), pseudovirus neutralization [3] was 0.197 µg/mL. It also gave a Polyclonal Transfectant Neutralization Index (well 5141 B17) [3] of 2.74, a Primary Neutralization Index (B cell culture well 5141 B17) [3] of 2.3 and a Fold IC50 increase relative to wild-type [4] of 0.7 fold. For the same binder, the Fold IC50 increase relative to wild-type [5] was 0.8 fold, the IC50 (µg/mL), pseudovirus neutralization [6] was 9.68 µg/mL and the Fold IC50 increase relative to wild-type [7] was 314 fold. It also gave an IC50 (µg/mL), pseudovirus neutralization [8] greater than 50 µg/mL, an IC50 neutralization [9] of 0.0249 µg/mL and a Fold IC50 increase relative to wild-type [10] of 1.6 fold. The Fold IC50 increase relative to wild-type [11] was 0.8 fold, the Median IC50 against viruses neutralized with an IC50 <50 µg/ml [12] was 0.03 µg/mL and the Fold IC50 increase relative to wild-type [13] was 1.8 fold. It also gave an IC50 (µg/mL), pseudovirus neutralization [14] greater than 50 µg/mL, a Fold IC50 increase relative to wild-type [15] of 0.5 fold and an IC50 (µg/mL), pseudovirus neutralization [16] of 0.02 µg/mL. For the same binder, the Fold IC50 increase relative to wild-type [17] was 0.8 fold, the Fold IC50 increase relative to wild-type [18] was 0.8 fold and the IC50 neutralization [19] was 0.0046 µg/mL. The Fold IC50 increase relative to wild-type [20] was 1.8 fold, the Polyclonal Transfectant Neutralization Index (well 5141 B17) [21] was 102 and the Primary Neutralization Index (B cell culture well 5141 B17) [21] was 654. The Fold IC50 increase relative to wild-type [22] was 1.5 fold, the Fold IC50 increase relative to wild-type [23] was 1.1 fold and the Polyclonal Transfectant Neutralization Index (well 5141 B17) [24] was 102. The Primary Neutralization Index (B cell culture well 5141 B17) [24] was 1410, the Median IC50 against viruses neutralized with an IC50 <50 µg/ml [25] was 0.04 µg/mL and the Fold IC50 increase relative to wild-type [26] was 0.6 fold. It also gave an IC50 (µg/mL), pseudovirus neutralization [27] of 0.006 µg/mL, a Fold IC50 increase relative to wild-type [28] of 0.6 fold and an IC50 (µg/mL), pseudovirus neutralization [29] greater than 50 µg/mL. For the same binder, the IC50 neutralization [30] was 0.283 µg/mL, the Fold IC50 increase relative to wild-type [31] was 1 fold and the Fold IC50 increase relative to wild-type [32] was 0.7 fold. The Fold IC50 increase relative to wild-type [33] was 0.7 fold, the Fold IC50 increase relative to wild-type [34] was 0.5 fold and the Fold IC50 increase relative to wild-type [35] was 0.2 fold. It also gave a Fold IC50 increase relative to wild-type [36] of 1.7 fold, an IC50 neutralization [37] of 0.0163 µg/mL and a Median IC50 against viruses neutralized with an IC50 <50 µg/ml [38] of 0.02 µg/mL. The Fold IC50 increase relative to wild-type [39] was 1.1 fold, the Median IC50 against viruses neutralized with an IC50 <50 µg/ml [40] was 0.05 µg/mL and the Fold IC50 increase relative to wild-type [41] was 0.6 fold. The IC50 neutralization [42] was 0.012 µg/mL.

From patent US20200024330A1
